According to publication PMC4752478, “Probing the Catalytic Mechanism of Vibrio harveyi GH20 β-N-Acetylglucosaminidase by Chemical Rescue” (PLoS ONE, 2016):
Where a name gives a salt, the structure may show the parent alone.

Columns and labels:
VhGlcNAcase = target: T1, VhGlcNAcase (Vibrio harveyi, UniProt D9ISE0); experiment: biochemical; conditions: read-out: Specific activity (nmol/min/μg) / 1 M HCOONa
T1 sequence (D9ISE0 1-642): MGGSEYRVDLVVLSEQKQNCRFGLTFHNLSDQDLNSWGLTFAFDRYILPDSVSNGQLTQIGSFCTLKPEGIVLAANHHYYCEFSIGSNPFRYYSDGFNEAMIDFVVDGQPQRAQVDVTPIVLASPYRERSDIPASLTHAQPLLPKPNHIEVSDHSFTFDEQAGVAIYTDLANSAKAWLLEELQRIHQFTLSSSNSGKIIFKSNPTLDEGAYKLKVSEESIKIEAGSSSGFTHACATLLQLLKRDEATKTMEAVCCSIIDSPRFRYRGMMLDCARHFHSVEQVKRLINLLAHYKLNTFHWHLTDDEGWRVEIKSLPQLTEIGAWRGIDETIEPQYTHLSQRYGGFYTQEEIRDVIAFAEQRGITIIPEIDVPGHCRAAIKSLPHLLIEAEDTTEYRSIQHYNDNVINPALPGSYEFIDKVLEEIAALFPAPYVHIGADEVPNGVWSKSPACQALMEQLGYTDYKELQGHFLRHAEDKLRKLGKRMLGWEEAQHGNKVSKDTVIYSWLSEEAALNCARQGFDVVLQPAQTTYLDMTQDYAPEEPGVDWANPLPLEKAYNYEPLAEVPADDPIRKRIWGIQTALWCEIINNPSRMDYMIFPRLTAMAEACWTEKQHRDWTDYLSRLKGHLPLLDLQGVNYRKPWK

[1] = tested on: CC(=O)N[C@H]1[C@H](Oc2ccc([N+](=O)[O-])cc2)O[C@H](CO)[C@@H](O)[C@@H]1O; experiment: purified protein; conditions: no sodium formate, 100 mM sodium phosphate pH 7.0, 37°C

Compound: O=CO [sodium formate]
- activity at 1 M (VhGlcNAcase): 80%

Compound: VhGlcNAcase (Vibrio harveyi; D437A)
- Km [1]: 390 ± 32 µM
- kcat [1]: 0.14 ± 0.01 s⁻¹
- kcat/Km [1]: 360 M⁻¹ s⁻¹
